Measured values: patent publication US20210246200A1 (UNIVERSIT T Z RICH, published 2021)
Changes are numbered by the printed parent chain. Names and notes keep the numbering of the source.

B1: 108929 (antibody, human IgG1, kappa, N297A, V domains shown)
VH: EVQLVQSGAEVKKPGESLKISCKGSGYAFSNYLIEWVRQMPGKGLEWMGVINPGSGGTYYNEKFKGQVTISADKSISTAYLQWSSLKASDTAMYYCARWRGEGYYAYFDVWGQGTTVTVSS
VL: AIRLTQSPSSFSASTGDRVTITCKASQSVDYQGDSYMNWYQQKPGKAPKLLIYTASNLESGVPSRFSGSGSGTDFTLTISSLQSEDFATYYCQQSNEDPYTFGGGTKVEIKR
B2: Antibody No: 17 (antibody, human IgG1, kappa, N297A, V domains shown)
VH: B1 VH with S30T, F108Y
VL: B1 VL with M37L, T54A
notes: VK M33L; HEK293F supernatant
B3: Antibody No: 5 (antibody, human IgG1, kappa, N297A, V domains shown)
VH: B1 VH with S30T, Y59N
VL: B1 VL with M37L, T54S
notes: VH WT; VK M33L + A50S; HEK293F supernatant
B4: Antibody No: 7 (antibody, human IgG1, kappa, N297A, V domains shown)
VH: B1 VH with S30T, Y59N, F108Y
VL: B1 VL with M37L, T54A
notes: VK M33L; HEK293F supernatant
B5: Antibody No: 25 (antibody, human IgG1, kappa, N297A, V domains shown)
VH: B1 VH with Y59N, F108Y
VL: B1 VL with M37L, T54S
notes: VK M33L + A50S; HEK293F supernatant
B6: Antibody No: 28 (antibody, human IgG1, kappa, N297A, V domains shown)
VH: B1 VH
VL: B1 VL with T54S
notes: VH N58Y + T30S; VK A50S; HEK293F supernatant; 108930 is kept apart
B7: Antibody No: 24 (antibody, human IgG1, kappa, N297A, V domains shown)
VH: B1 VH with Y59N, F108Y
VL: B1 VL
notes: VK A50T; HEK293F supernatant
B8: Antibody No: 34 (antibody, human IgG1, kappa, N297A, V domains shown)
VH: B1 VH with F108Y
VL: B1 VL
notes: VK A50T; HEK293F supernatant
B9: Antibody No: 22 (antibody, human IgG1, kappa, N297A, V domains shown)
VH: B1 VH with Y59N, F108Y
VL: B1 VL with M37L, T54A
notes: VK M33L; HEK293F supernatant
B10: Antibody No: 3 (antibody, human IgG1, kappa, N297A, V domains shown)
VH: B1 VH with S30T, Y59N
VL: B1 VL with T54S
notes: VH WT; VK A50S; HEK293F supernatant
B11: Antibody No: 4 (antibody, human IgG1, kappa, N297A, V domains shown)
VH: B1 VH with S30T, Y59N
VL: B1 VL
notes: VH WT; VK A50T; HEK293F supernatant
B12: Antibody No: 10 (antibody, human IgG1, kappa, N297A, V domains shown)
VH: B1 VH with S30T, Y59N, F108Y
VL: B1 VL with M37L, T54S
notes: as for B5
B13: Antibody No: 33 (antibody, human IgG1, kappa, N297A, V domains shown)
VH: B1 VH with F108Y
VL: B1 VL with T54S
notes: VK A50S; HEK293F supernatant
B14: Antibody No: 9 (antibody, human IgG1, kappa, N297A, V domains shown)
VH: B1 VH with S30T, Y59N, F108Y
VL: B1 VL
notes: VK A50T; HEK293F supernatant
B15: Antibody No: 11 (antibody, human IgG1, kappa, N297A, V domains shown)
VH: B1 VH with S30T
VL: B1 VL with T54A
notes: VH N58Y; VK WT; HEK293F supernatant
B16: Antibody No: 30 (antibody, human IgG1, kappa, N297A, V domains shown)
VH: B1 VH
VL: B1 VL with M37L, T54S
notes: VH N58Y + T30S; VK M33L + A50S; HEK293F supernatant
B17: Antibody No: 23 (antibody, human IgG1, kappa, N297A, V domains shown)
VH: B1 VH with Y59N, F108Y
VL: B1 VL with T54S
notes: VK A50S; HEK293F supernatant
B18: Antibody No: 32 (antibody, human IgG1, kappa, N297A, V domains shown)
VH: B1 VH with F108Y
VL: B1 VL with M37L, T54A
notes: VK M33L; HEK293F supernatant
B19: Antibody No: 35 (antibody, human IgG1, kappa, N297A, V domains shown)
VH: B1 VH with F108Y
VL: B1 VL with M37L, T54S
notes: as for B5
B20: Antibody No: 6 (antibody, human IgG1, kappa, N297A, V domains shown)
VH: B1 VH with S30T, Y59N, F108Y
VL: B1 VL with T54A
notes: VK WT; HEK293F supernatant
B21: Antibody No: 29 (antibody, human IgG1, kappa, N297A, V domains shown)
VH: B1 VH
VL: B1 VL
notes: VH N58Y + T30S; VK A50T; HEK293F supernatant
B22: Antibody No: 26 (antibody, human IgG1, kappa, N297A, V domains shown)
VH: B1 VH
VL: B1 VL with T54A
notes: VH N58Y + T30S; VK WT; HEK293F supernatant; 108929 is kept apart
B23: Antibody No: 19 (antibody, human IgG1, kappa, N297A, V domains shown)
VH: B1 VH with S30T, F108Y
VL: B1 VL
notes: VK A50T; HEK293F supernatant
B24: Antibody No: 27 (antibody, human IgG1, kappa, N297A, V domains shown)
VH: B1 VH
VL: B1 VL with M37L, T54A
notes: VH N58Y + T30S; VK M33L; HEK293F supernatant
B25: Antibody No: 31 (antibody, human IgG1, kappa, N297A, V domains shown)
VH: B1 VH with F108Y
VL: B1 VL with T54A
notes: VK WT; HEK293F supernatant
B26: Antibody No: 18 (antibody, human IgG1, kappa, N297A, V domains shown)
VH: B1 VH with S30T, F108Y
VL: B1 VL with T54S
notes: VK A50S; HEK293F supernatant
B27: Antibody No: 21 (antibody, human IgG1, kappa, N297A, V domains shown)
VH: B1 VH with Y59N, F108Y
VL: B1 VL with T54A
notes: VK WT; HEK293F supernatant
B28: Antibody No: 2 (antibody, human IgG1, kappa, N297A, V domains shown)
VH: B1 VH with S30T, Y59N
VL: B1 VL with M37L, T54A
notes: VH WT; VK M33L; HEK293F supernatant
B29: Antibody No: 16 (antibody, human IgG1, kappa, N297A, V domains shown)
VH: B1 VH with S30T, F108Y
VL: B1 VL with T54A
notes: VK WT; HEK293F supernatant
B30: Antibody No: 14 (antibody, human IgG1, kappa, N297A, V domains shown)
VH: B1 VH with S30T
VL: B1 VL
notes: VH N58Y; VK A50T; HEK293F supernatant

What follows are binders tested against T1, Proleukin® (aldesleukin) (human, UniProt P60568 21-153, limits assumed) (assay: ELISA, coated Proleukin, mean of 3 experiments;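 further: binding of anti-human IL-2 antibodies, tested as an 11-point dilution series for 2 hours, to plate-bound IL-2, detected via streptavidin-HRP with absorbance read at 450 nm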).
T1 construct: Variant of human wt IL-2 with C145S (C125S on mature IL-2); also called IL-2 (Proleukin®); human IL-2 (Proleukin)
T1 sequence (P60568 other isoform, or with tags, fused parts or gaps limits assumed): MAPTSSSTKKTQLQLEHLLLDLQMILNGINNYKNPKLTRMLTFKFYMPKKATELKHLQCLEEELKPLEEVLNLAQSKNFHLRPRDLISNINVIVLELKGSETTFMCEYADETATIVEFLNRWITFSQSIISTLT
Method: ELISA plates (Corning) were coated with human IL-2 (Proleukin) at 10 μg/mL in PBS overnight at 4° C. The plates were washed 6 times with PBST, then blocked in 1% BSA/PBST for 2 hours. After blocking and washing, the anti-human IL-2 antibodies were added on the plate in an 11-point dilution series in 1% BSA/PBST and incubated for 2 hours. […] The plates were then washed again and incubated with Streptavidin-Horseradish Peroxidase in 1% BSA/PBS for 45 minutes. After washing, the substrate (R&D Systems) was added into the plates and the enzymatic reaction was stopped after 3 minutes by adding Stop Solution. The plates were read by a microplate reader at 450 nm with a wavelength correction set to 540 nm.

| EC50 [nM] | Binder |
| --- | --- |
| 0.15 | B1 |

The binders below were run against T1, Proleukin® (aldesleukin) (assay: ELISA, coated Proleukin, serially diluted supernatant).

| EC50 [nM] | Binder |
| --- | --- |
| 1.39 | B2 |
| 0.5 | B3 |
| 0.31 | B4 |
| 0.42 | B5 |
| 0.16 | B6 |
| 0.59 | B7 |
| 0.65 | B8 |
| 0.43 | B9 |
| 0.51 | B10 |
| 0.73 | B11 |
| 0.35 | B12 |
| 0.67 | B13 |
| 0.5 | B14 |
| 0.34 | B15 |
| 0.22 | B16 |
| 0.26 | B17 |
| 0.65 | B18 |
| 0.72 | B19 |
| 0.34 | B20 |
| 0.24 | B21 |
| 0.49 | B22 |
| 0.5 | B23 |
| 0.39 | B24 |
| 0.39 | B25 |
| 0.54 | B26 |
| 0.65 | B27 |
| 0.79 | B28 |
| 0.38 | B29 |
| 0.36 | B30 |

What follows are binders tested against T1, Proleukin® (aldesleukin) (assay: ELISA, coated Proleukin, HEK293F supernatant 1:2).
Method: Subsequently, hIL-2 binding efficiency of the antibodies present in the supernatants was determined using ELISA. In brief, ELISA plates (Maxisorp 96-well black microtiter plate) were coated overnight at 4° C. with 100p/well of Proleukin® (5 μg/ml PBS). ELISA plates were washed once with TBST (1×TBS/0.05% Tween 20) using a plate-washer (BioTek). […] After removal of the blocking buffer, plates were washed once with TBST using the plate washer. Supernatants were diluted 1:2 in blocking buffer and 50 μl transferred to the designated well of the ELISA plate. Each sample was present on three ELISA plates. The three plates were incubated at RT under gentle agitation. […] The other two plates were washed either every hour three times with TBST for 4 hours or washed every hour three times for 12 hours before adding the detection antibody. […] Luminescence signal was measured after 5 minutes incubation in the dark. […] All ELISA values are mean values based on two measurements.

| ELISA value (Normal ELISA) [luminescence signal] | ELISA value (wash 3x every hour for 4 HRS) [luminescence signal] | ELISA value (wash 3x every hour for 12 HRS) [luminescence signal] | Binder |
| --- | --- | --- | --- |
| 3050 | 2820 | 1140 | B2 |
| 4970 | 4490 | 873 | B3 |
| 7640 | 6360 | 1550 | B4 |
| 3570 | 3050 | 1080 | B5 |
| 18500 | 18100 | 5870 | B6 |
| 2770 | 1880 | 674 | B7 |
| 3860 | 3080 | 1360 | B8 |
| 3970 | 3190 | 1200 | B9 |
| 4500 | 4580 | 1310 | B10 |
| 2180 | 1990 | 705 | B11 |
| 6050 | 4430 | 1630 | B12 |
| 3990 | 3570 | 1820 | B13 |
| 1940 | 1430 | 686 | B14 |
| 12400 | 10500 | 3500 | B15 |
| 14900 | 14400 | 2800 | B16 |
| 6170 | 4640 | 1250 | B17 |
| 7190 | 6210 | 3330 | B18 |
| 4910 | 4040 | 1790 | B19 |
| 5850 | 5120 | 1730 | B20 |
| 6950 | 6850 | 2720 | B21 |
| 4030 | 4210 | 1800 | B22 |
| 5400 | 4880 | 2210 | B23 |
| 7760 | 7000 | 2770 | B24 |
| 11400 | 10300 | 3400 | B25 |
| 8060 | 7320 | 3660 | B26 |
| 2200 | 1840 | 892 | B27 |
| 1360 | 1230 | 518 | B28 |
| 10200 | 9810 | 2280 | B29 |
| 7180 | 7200 | 2540 | B30 |
